Consider four molecules from patent publication US20110250165A1 (Dana-Farber, published 2011).

The target in test [1] is T1, CXCR2 (UniProt P25025 1-360, limits assumed).
T1 construct: whole, on cells; also called 2222
T1 sequence (looked up): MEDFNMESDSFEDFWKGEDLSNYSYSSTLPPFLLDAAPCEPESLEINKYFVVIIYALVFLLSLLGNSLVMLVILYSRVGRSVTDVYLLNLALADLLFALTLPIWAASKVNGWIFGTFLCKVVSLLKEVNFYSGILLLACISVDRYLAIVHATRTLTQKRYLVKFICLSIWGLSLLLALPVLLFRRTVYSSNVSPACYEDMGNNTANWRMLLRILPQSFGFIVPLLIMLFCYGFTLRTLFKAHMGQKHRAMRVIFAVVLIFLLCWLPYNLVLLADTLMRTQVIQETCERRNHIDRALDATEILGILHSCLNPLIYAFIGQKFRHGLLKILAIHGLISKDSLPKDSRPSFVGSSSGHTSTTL
The test is described as follows: flow cytometry, scFv-Fc on transfected 293T cells, FITC anti-human IgG. Here is the method:
(§1) Epitope mapping experiments were performed to determine the binding sites for the anti-CXCR4 antibodies of the invention. (See Example 5. infra). […] Analysis was performed using a flow cytometer. Binding activity was measured by MFI on total cells gated. The following formula was used to calculate the reactivity:reactivity to each clone=(MFI of chimeric receptor/MFI of wild type CXCR4)×100%.
(§2) Thirty six hours after transfection, the cells were harvested. […] The cells were then washed two times with 0.5% BSA/PBS/0.02% NaN3.
(§3) Next, FITC-labeled secondary antibodies were added to the cells and were allowed to incubate at 4° C. for 30 minutes. The cells were then washed again two times with 0.5% BSA/PBS/0.02% NaN3. Following the second wash, FACS analysis was performed.

Test [2] addresses 2442 CXCR2/CXCR4 chimera. Described as above. Here is the method:
as §1, §2, §3

Test [3] has as its target T2, mouse CXCR4 (mouse, UniProt P70658 1-359).
T2 construct: whole, on cells; also called mice CXCR4
Described as above. How it is done:
as §1, §2, §3

The target of test [4] is T3, 2444b CXCR2/CXCR4 chimera (human, UniProt P25025 1-48; P61073 39-352, limits assumed). The description is as above. How it is done: as §1, §2, §3
Test [5] deals with T4, rhesus macaque monkey CXCR4 (rhesus macaque, UniProt P79394 1-352).
T4 construct: whole, on cells
Described as above. How it is done:
as §1, §2, §3

The target in test [6] is T5, human CXCR4 (wild type) (human, UniProt P61073 1-352).
T5 construct: whole, on cells; also called wtCXCR4
The description is as above. How it is done: as §1, §2, §3

Test [7] concerns the target 2242 CXCR2/CXCR4 chimera. Described as above. How it is done: as §1, §2, §3
Test [8] addresses 4442 CXCR2/CXCR4 chimera. Described as above. Here is the method:
as §1, §2, §3

Test [9] addresses Δ-X4. Described as above. How it is done: as §1, §2, §3
Test [10] deals with 2442 CXCR2/CXCR4 chimera. The test is described as follows: FACS on 293T cells expressing CXCR4 variants.
The target in test [11] is T3, 2444b CXCR2/CXCR4 chimera. As to the kind of experiment: FACS on 293T cells expressing CXCR4 variants.
Test [12] has as its target T5, human CXCR4 (wild type). As to the kind of experiment: FACS on 293T cells expressing CXCR4 variants.
Test [13] addresses 4442 CXCR2/CXCR4 chimera. As to the kind of experiment: FACS on 293T cells expressing CXCR4 variants.

T5 sequence (P61073 whole entry): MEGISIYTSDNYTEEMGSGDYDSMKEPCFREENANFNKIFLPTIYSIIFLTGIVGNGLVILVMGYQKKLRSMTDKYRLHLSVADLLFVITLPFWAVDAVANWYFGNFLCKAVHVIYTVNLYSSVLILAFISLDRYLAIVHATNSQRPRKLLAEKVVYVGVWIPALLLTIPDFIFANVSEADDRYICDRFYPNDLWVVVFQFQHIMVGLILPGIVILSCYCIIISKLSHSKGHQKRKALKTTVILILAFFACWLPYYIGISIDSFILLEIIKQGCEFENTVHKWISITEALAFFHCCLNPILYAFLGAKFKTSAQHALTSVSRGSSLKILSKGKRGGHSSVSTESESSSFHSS
T2 sequence (P70658 whole entry): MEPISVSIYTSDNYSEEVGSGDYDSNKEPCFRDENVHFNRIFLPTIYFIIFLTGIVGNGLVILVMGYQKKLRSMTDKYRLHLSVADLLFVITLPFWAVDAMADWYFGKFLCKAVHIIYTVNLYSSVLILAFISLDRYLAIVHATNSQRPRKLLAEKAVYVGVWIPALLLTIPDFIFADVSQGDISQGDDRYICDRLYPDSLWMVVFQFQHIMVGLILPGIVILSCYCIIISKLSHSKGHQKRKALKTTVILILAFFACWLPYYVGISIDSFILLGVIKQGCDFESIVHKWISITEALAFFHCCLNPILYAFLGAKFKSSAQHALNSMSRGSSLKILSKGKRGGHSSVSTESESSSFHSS
T4 sequence (P79394 whole entry): as the sequence (P61073 whole entry) above, with M24I, N35H, K38R, R146K, N176S, V214D counted along it

B1: 18-Fc (Fc fusion)
VH: QVQLVQSGAEVKKPGASVKVSCKASGYTFTSYGISWVRQAPGQGLEWMGWISAYNGNTNYAQKLQGRVTMTTDTSTSTAYMELRSLRSDDTAVYYCARDTPGIAARRYYYYGMDVWGQGTTVTVSS
VL: SSELTQDPAVSVALGQTVRITCQGDSLRKFFASWYQQKPGQAPVLVIYGKNSRPSGIPDRFSGSNSRNTASLTITGAQAEDEGDYYCNSRDSRDNHQVFGAGTKVTVL
notes: scFv-Fc fusion; also called X18; scFv-Fc 18
For B1, the “reactivity (MFI of chimeric receptor/MFI of wild type CXCR4 x 100%)” value came out at 2% in test [1]; 37.8% in [2]; 13.1% in [3]; 28.5% in [4]; 89.1% in test [5]; 100% in test [6]. Besides, the “reactivity (MFI of chimeric receptor/MFI of wild type CXCR4 x 100%)” value in test [7] worked out at 10.1%; in test [8], 35.2%; in test [9], 48.1%.

B2: 33-IgG1 (antibody, V domains shown)
VH: QVTLKESGGGVVQPGRSLRLSCAASGFTFTNYGLHWVRQAPGKGLEWVAVISHDGTKKYYADSVKGRFTISRDSSENTLYLQMNSLRPEDSALYYCARDGGYCSGGRCYSYGMDVWGQGTTVTVSS
VL: QSVLTQPPSASGTPGQRVTISCSGSRSNIGSNTVNWYQQLPGTAPKLLIYTNNQRPSGVPDRFSGSKSGTSASLAITGLQAEDEADYYCLSFDSSLTSYVFGTGTKVTVLG
notes: Bivalent whole human IgG1, VH and VL subcloned into human IgG1 lambda light chain expression vector TCAE6; also called mAb 33
Consider B2, for which the “binding (+%)” value stood at 1.5% in [10], 1% in test [11], 100% in test [12] and 99.5% in test [13].

B3: 19-Fc (Fc fusion)
VH: QVQLVQSGGGVVQPGRSLRLSCAASGFTFSSYPMHWVRQAPGKGLEWMTVISSDGRNKYYPDSVKGRFTISRDNSKNTLYLQMNSLRPEDTAVYYCARGGYHDFWSGPDYWGQGTLVTVSS
VL: EIVLTQSPATLSVSPGERATLSCRASQSVNTNLAWYQQKPGQAPRLLIYGASSRATGIPDRFSGSGSGTDFTLTISRLEPEDFAVYYCQHYGSSPLTFGGGTKLEIK
notes: scFv-Fc fusion; also called X19; scFv-Fc 19
On to B3, for which the “reactivity (MFI of chimeric receptor/MFI of wild type CXCR4 x 100%)” value came to 7.5% in [1]; 7.1% in test [2]; 5.6% in test [3]; 8.5% in [4]; 35.1% in test [5]; 100% in test [6]. The results for the “reactivity (MFI of chimeric receptor/MFI of wild type CXCR4 x 100%)” value in test [7], in [8] and in test [9] were 5.2%, 5.3% and 11%, respectively.

B4: 48-IgG1 (antibody, V domains shown)
VH: QVQLVQSGGGVVLPGRSLRLSCVASGFTFRRYGMHWVRQAPGKGLEWVSLISYDGSKTFYGESVKGRFTISRDNSKNTLYLQMNSLRAEDTAVYYCARATVTTDGYYYMDVWGKGTTVTVSS
VL: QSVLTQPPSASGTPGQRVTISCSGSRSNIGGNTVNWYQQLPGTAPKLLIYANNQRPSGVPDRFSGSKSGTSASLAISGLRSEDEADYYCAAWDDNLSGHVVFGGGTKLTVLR
notes: Bivalent whole human IgG1, VH and VL subcloned into human IgG1 lambda light chain expression vector TCAE6; also called mAb 48
As for B4, the “binding (+%)” value was -2.9% in test [10], -2.3% in test [11], 100% in test [12] and 91.9% in test [13].
